Key:
[1] = biological target: ALDHTt, aldehyde dehydrogenase from Thermus thermophilus (Thermus thermophilus); assay: SEC; HiLoad 16/60 Superdex 200 pg, 50 mM Tris-HCl pH 7.5, 5 mM β-mercaptoethanol, 150 mM NaCl, flow rate 1 mL/min; last step of the purification; no calibration told
purified protein [2] = substrate: CCCCCC=O; assay: purified protein; details: 2 mM NAD+, 10 mM potassium phosphate pH 8, 50 °C
purified protein [3] = substrate: O=Cc1ccc(C=O)cc1; assay: purified protein; assay type: biochemical, Thermus thermophilus; details: 2 mM NAD+, 10 mM potassium phosphate pH 8, 50 °C
purified protein [4] = substrate: O=Cc1ccccc1; assay: purified protein; assay type: biochemical, Thermus thermophilus; details: 2 mM NAD+, 10 mM potassium phosphate pH 8, 50 °C
purified protein [5] = substrate: NC(=O)c1ccc[n+]([C@@H]2O[C@H](COP(=O)(O)OP(=O)(O)OC[C@H]3O[C@@H](n4cnc5c(N)ncnc54)[C@H](O)[C@@H]3O)[C@@H](O)[C@H]2O)c1; assay: purified protein; assay type: biochemical, Thermus thermophilus; details: 2 mM hexanal, 10 mM potassium phosphate pH 8, 50 °C, varied: cofactor

| stoichiometry N [1] | Molecule | Km (purified protein [2]) [µM] | Vmax (purified protein [2]) [µmol/min] | kcat (purified protein [2]) [s⁻¹] | Km (purified protein [3]) [µM] | Vmax (purified protein [3]) [µmol/min] | kcat (purified protein [3]) [s⁻¹] | Km (purified protein [4]) [µM] | Vmax (purified protein [4]) [µmol/min] | kcat (purified protein [4]) [s⁻¹] | Km (purified protein [5]) [µM] |
| --- | --- | --- | --- | --- | --- | --- | --- | --- | --- | --- | --- |
| 4 | ALDHTt, aldehyde dehydrogenase from Thermus thermophilus (enzyme) | – | – | – | – | – | – | – | – | – | – |
| – | ALDHTt (Thermus thermophilus HB27) (protein, full-length, his-tagged (pET-22b(+)-ALDHTt), E. coli BL21(DE3); homotetramer with C-terminal tail) MRKAAGKYGNTLEFGHLVGGEEVLEGPLLERRNPSDREDVVARFPEADKDLVRKAALKAREAFAEWSRTPAPIRGQVLFNLVKILEREKPTLTRLMVREVGKTPKEAAGDVQEAIDTALFFASEGRRLYGQTVPSEMRDKELFTFRRPLGVVGIITAGNFPIAVPSWKLIPAVLTGNTVVWKPSEDAPTLSFVFAKLFEEAGLPPGVLNVVFGGGKGSTGQWMVELMDEGLFQKFAFTGSTQVGRWIGEVAGRNLIRPTLELGGKNPLVVMRDADLDLAVEGAWWSAFATGGQRCTSAGNILVDAPIYEEFKRRFLERVEATLVGNPLLHPEVTYGPFINERFFARWQEHYRVGEAEGARLLFGRGRITRENPYPRFLGDPEAGLYGWPTVWEVRPGTRLFTEEVFGPTINLVKVDGIEEAIAVANSTPYGLSSAIYTNHRHWAYLFKVGIRAGMTSINNATVGAEAHLPFGGVKASGNGGRESGIWVLEEYTYWHAVNEEYSGRLQLAQMDTGYVSPKAPTPWGEVLGL | 990 ± 240 | 0.027 | 5.71 | 380 ± 110 | 0.047 | 12.1 ± 2.5 | 1520 ± 510 | 0.0057 | 1.46 ± 0.29 | 9.2 |

From article PMC8699947, “Study of ALDH from Thermus thermophilus—Expression, Purification and Characterisation of the Non-Substrate Specific, Thermophilic Enzyme Displaying Both Dehydrogenase and Esterase Activity” (Cells, 2021)
